# Laboratory results reported in patent US20110039770A1, “INHIBITORS OF PROTEIN KINASE C ISOFORMS AND USES THEREOF” (PHARMAGAP INC., priority 2005, published 2011).
# Where a SMILES comes first, the peptide text is derived from it. Where no end group is shown, it is not given here. The star is where a group is joined. PNA(A) = NCCN(CC(=O)*)C(=O)Cn1cnc2c(N)ncnc21
# Tests used:
# PKC enzymes (cPKCs) = test: Phosphorylation of MARCKS peptide by endogenous PKCs in IMR-32 cells; assay type: cell-based, human
# PKC delta = PKC delta (Homo sapiens, UniProt Q05655); test: Kinase-Glo Luminescent Kinase Assay; assay type: biochemical; settings: for inhibition of PKC delta activity (in words): Kinase-Glo
# Procedure: (§1) Compounds TIM 10, 11, 13, 14, 15, and 18-22 (see Table 28) were tested for their ability to inhibit the activity of PKC-alpha, beta 1, delta and epsilon isoforms the Kinase-Glo™ Luminescent Kinase Assay (Promega, Cat # V6712/3/4) following the manufacturer's instructions.
# PKC alpha = PKC alpha (Homo sapiens, UniProt P17252); test: Kinase-Glo Luminescent Kinase Assay; assay type: biochemical; settings: for inhibition of PKC alpha activity (in words): Kinase-Glo
# Procedure: as §1
# [1] = test system: peripheral blood lymphocytes; test: Peripheral blood lymphocyte survival and blastogenic response to mitogens; assay type: cell-based; settings: primary lymphocytes of pigs, mice and human
# PKC epsilon = molecular target: T1, PKC epsilon (Homo sapiens, UniProt Q02156); test: Kinase-Glo Luminescent Kinase Assay; assay type: biochemical; set-up: purchased
# T1 sequence (Q02156 1-737): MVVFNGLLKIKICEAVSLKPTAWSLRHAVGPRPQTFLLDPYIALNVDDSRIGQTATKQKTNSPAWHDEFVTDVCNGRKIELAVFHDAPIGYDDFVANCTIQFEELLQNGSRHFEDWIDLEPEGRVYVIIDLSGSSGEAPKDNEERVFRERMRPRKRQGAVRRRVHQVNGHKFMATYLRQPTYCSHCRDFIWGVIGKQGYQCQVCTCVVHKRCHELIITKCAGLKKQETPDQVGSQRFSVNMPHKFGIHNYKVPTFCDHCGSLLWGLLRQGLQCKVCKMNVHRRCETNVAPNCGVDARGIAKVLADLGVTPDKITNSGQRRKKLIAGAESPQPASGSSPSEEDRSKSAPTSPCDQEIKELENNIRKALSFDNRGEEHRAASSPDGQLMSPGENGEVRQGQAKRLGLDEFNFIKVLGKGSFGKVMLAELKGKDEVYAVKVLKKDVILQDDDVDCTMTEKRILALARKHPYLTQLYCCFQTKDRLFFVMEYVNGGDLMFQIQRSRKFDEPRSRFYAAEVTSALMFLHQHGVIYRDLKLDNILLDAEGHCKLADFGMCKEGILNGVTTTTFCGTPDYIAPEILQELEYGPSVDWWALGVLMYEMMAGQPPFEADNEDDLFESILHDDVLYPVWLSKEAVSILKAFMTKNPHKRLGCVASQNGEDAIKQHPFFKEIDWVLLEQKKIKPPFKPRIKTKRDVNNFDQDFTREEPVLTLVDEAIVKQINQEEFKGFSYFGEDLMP
# Procedure: as §1
# PKC beta 1 = PKC beta 1 (Homo sapiens, UniProt P05771); test: Kinase-Glo Luminescent Kinase Assay; assay type: biochemical; set-up: purchased; settings: for inhibition of PKC beta 1 activity (in words): Kinase-Glo
# Procedure: as §1
# [2] = test system: LS180 human colon cancer cells; test: Survival of doxorubicin-resistant colon cancer cells, trypan blue exclusion; assay type: cell-based; settings: 50 ng/ml; 72 hrs
# Procedure: Highly tumourigenic human colon cancer cells (LS180; ATCC # CL-187) which constitutively express multi-drug resistance (MDR) were used for this experiment. LS180 cells were seeded in 6 well plates at a density of 2×10^5. After a 24 hr recovery cells were treated with 50 ng/ml of doxorubicin, 2.5 μM compound TIM 10, or a combination of doxorubicin and compound TIM 10 (2.5 μM and 5 μM) for 72 hrs. Note that compound TIM 10 was added to the cell culture medium; no protocol was used to force the compound into the cell. The cells were then trypsinized and counted using the standard trypan blue dye exclusion assay.
# PKC-β [3] = molecular target: T2, PKC-β (Homo sapiens, UniProt P05771); test: Competition of PRE with PKC-β antibody binding, Protocol B, IMR-32; settings: 100 μg
# T2 construct: PRE 2 and PRE 3 in IMR-32 Neuroblastoma Cells: Protocol A; endogenous in cells; host or cells: IMR-32 human neuroblastoma cells
# Procedure: The ability of the peptides PRE 2 and PRE 3 (see Table 4) to interfere with the binding of a PKC-α-specific polyclonal antibody (Santa Cruz Biotechnology, Inc.) to PKC-α was determined using a modified version of the protocol outlined above in which the test peptide was added directly to the cell extract prior to electrophoresis at a concentration of either 5× or 15× the concentration of the protein applied to each well of the gel for the Western blots (20 μg).
# (§2) Peptides PRE 2 and PRE 3 (see Table 4) were tested for their ability to interfere with the binding of a PKC-β-specific polyclonal antibody (Santa Cruz Biotechnology, Inc.) to PKC-β using the general protocol described in Example 3.
# PKC-α [4] = molecular target: T3, PKC-α (Homo sapiens, UniProt P17252); test: Competition of PRE with PKC-α antibody binding, Protocol B (peptide added to cell extract before electrophoresis), IMR-32; set-up: endogenous PKC-α in (A) untreated human neuroblastoma (IMR-32) cells; endogenous in cells; host or cells: IMR-32 human neuroblastoma cells; settings: 100 μg
# Procedure: Peptides PRE 3 and PRE 4 (see Table 4) were tested for their ability to interfere with the binding of isoform-specific polyclonal antibodies (Santa Cruz Biotechnology, Inc.) to PKC-α, PKC-βI or PKC-βII using the general protocol described in Example 3.
# PKC-α [5] = molecular target: T3, PKC-α; test: Competition of PRE with PKC-α antibody binding on Western blot, Protocol A, IMR-32 lysate; set-up: endogenous PKC-α in (A) untreated human neuroblastoma (IMR-32) cells; endogenous in cells; host or cells: IMR-32 human neuroblastoma cells; settings: IMR-32 cells
# Procedure: The ability of the PRE 1, 2 and 3 (see Table 3 above) to interfere with the binding of a PKC-α-specific polyclonal antibody to PKC-α was determined using the following protocol.
# (§3) Cell lysates from either IMR-32 (human neuroblastoma) cells or C6Cx43 cells (rat glioma transfected cells overexpressing connexin 43) were obtained using standard protocols and the proteins of the lysate were separated by SDS PAGE electrophoresis and electrotransferred onto a nitrocellulose membrane. The membrane was incubated for 30 minutes in blocking buffer (TBST) containing the test peptide at either 5× or 20× the concentrations of the primary antibody. A primary polyclonal antibody specific for PKC-α (Santa Cruz Biotechnology, Inc., CA) was then added (15 μg/ml) and the membrane incubated for a further 45 minutes. Finally, the primary antibody was detected with a secondary antibody conjugated to alkaline phosphatase using standard procedures. The intensity of the band corresponding to PKC-α was assessed by scanning and densitometry using the Gel-Pro software (Media Cybernetics) to obtain relative band intensities (average of 3 replicas). Control assays were conducted as described above except that blocking buffer without peptide was used.
# The results are expressed as relative band intensity and as a percentage of the intensity of the corresponding band in the control assay (“Relative intensity (%)”). “% inhibition” relates to the percentage of the PKC-α band that is inaccessible to the antibody.
# PKC-β [6] = molecular target: T2, PKC-β; test: Competition of PRE with PKC-β antibody binding, Protocol A, IMR-32 lysate
# Procedure: as §3
# as §2, with “Peptides PRE 1,” for “Peptides”, “1. […] It is worth noting in this regard that PKC-α and PKC-β belong to the same sub-group of PKCs (cPKCs).” for “3.”
# Sequence of PKC beta 1 (P05771 whole entry): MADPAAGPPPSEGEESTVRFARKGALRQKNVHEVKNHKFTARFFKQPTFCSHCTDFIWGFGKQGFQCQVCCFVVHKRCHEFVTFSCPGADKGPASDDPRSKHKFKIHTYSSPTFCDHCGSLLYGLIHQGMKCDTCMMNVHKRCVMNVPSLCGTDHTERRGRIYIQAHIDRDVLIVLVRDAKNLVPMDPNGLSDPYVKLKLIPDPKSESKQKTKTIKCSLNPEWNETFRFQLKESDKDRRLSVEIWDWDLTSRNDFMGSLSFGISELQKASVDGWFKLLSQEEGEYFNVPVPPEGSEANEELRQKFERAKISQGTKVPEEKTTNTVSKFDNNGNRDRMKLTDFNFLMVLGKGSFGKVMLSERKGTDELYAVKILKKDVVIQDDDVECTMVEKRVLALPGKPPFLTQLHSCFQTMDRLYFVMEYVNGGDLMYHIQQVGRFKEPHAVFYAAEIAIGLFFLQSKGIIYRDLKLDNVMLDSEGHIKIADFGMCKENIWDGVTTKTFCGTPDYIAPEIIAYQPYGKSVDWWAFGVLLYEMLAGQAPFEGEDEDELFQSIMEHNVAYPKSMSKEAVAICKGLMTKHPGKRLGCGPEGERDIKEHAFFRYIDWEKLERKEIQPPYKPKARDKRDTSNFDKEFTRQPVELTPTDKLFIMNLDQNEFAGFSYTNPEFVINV
# T2 sequence (P05771 whole entry): as above
# Sequence of PKC delta (Q05655 whole entry, canonical isoform): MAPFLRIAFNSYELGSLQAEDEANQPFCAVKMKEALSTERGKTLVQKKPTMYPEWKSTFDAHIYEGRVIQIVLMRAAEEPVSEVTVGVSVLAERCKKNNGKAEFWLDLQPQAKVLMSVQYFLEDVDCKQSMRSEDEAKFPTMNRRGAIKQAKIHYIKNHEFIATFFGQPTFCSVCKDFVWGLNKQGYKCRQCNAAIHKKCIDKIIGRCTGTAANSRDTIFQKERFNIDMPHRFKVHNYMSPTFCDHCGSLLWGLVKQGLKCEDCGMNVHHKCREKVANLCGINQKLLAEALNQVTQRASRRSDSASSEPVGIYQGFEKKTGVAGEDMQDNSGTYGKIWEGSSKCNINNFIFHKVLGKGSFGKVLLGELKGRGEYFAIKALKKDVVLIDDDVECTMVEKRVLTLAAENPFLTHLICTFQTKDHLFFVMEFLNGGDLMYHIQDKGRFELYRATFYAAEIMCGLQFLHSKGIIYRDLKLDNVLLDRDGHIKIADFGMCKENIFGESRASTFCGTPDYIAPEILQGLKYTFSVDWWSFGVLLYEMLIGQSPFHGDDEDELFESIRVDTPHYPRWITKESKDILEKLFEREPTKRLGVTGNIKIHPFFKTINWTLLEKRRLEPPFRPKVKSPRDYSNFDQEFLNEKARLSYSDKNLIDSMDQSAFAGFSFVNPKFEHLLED
compound,measurement,setting,value
Cn1c2ccccc2c2c3c(c4c5ccccc5n(CCC#N)c4c21)CNC3=O [Go6976],inactivation of cPKCs (MARCKS phosphorylation),PKC enzymes (cPKCs); 30 min,still very low
same,inactivation of cPKCs (phospho-MARCKS levels),PKC enzymes (cPKCs); 24 h,obvious
CC[C@H](C)[C@H](NC(=O)[C@H](CO)NC(=O)[C@@H](NC(=O)CNC(=O)[C@@H](NC(=O)[C@H](CC(C)C)NC(=O)[C@H](CC(N)=O)NC(=O)[C@H](CCC(N)=O)NC(=O)[C@H](C)NC(=O)[C@H](CC(=O)OC)NC(=O)[C@H](CCCCN)NC(=O)CNC(=O)CNC(=O)CNC(=O)CNC(=O)CNC(=O)CNC(=O)CNC(=O)[C@H](CC(C)C)NC(=O)[C@H](CCCNC(=N)N)NC(=O)[C@H](Cc1ccccc1)NC(=O)[C@H](CCCCNC(=O)CN(CCN)C(=O)Cn1cnc2c(N)ncnc21)NC(=O)[C@H](CCCNC(=N)N)NC(=O)[C@H](CCCNC(=N)N)NC(=O)[C@H](Cc1ccccc1)NC(C)=O)[C@@H](C)CC)[C@@H](C)CC)C(N)=O [TIM 15] (Ac-FRRK(PNA(A))FRLGGGGGGGKD(OMe)AQNLIGISI-NH2),inhibition at 15 µM,"PKC delta; 15.0 μM, read-out: % Inhibition PKC-δ",18.6%
same,inhibition at 30 µM,"PKC delta; 30.0 μM, read-out: % Inhibition PKC-δ",21.8%
same,inhibition at 15 µM,"PKC alpha; 15.0 μM, read-out: % Inhibition PKC-α",32.1%
same,inhibition at 30 µM,"PKC alpha; 30.0 μM, read-out: % Inhibition PKC-α",21.8%
same,apoptosis of peripheral blood lymphocytes,[1],do not induce apoptosis
same,blastogenic response to mitogens,[1],do not drastically limit the blastogenic response
same,inhibition at 15 µM,"PKC epsilon; 15.0 μM, read-out: % Inhibition PKC-ε",9%
same,inhibition at 30 µM,"PKC epsilon; 30.0 μM, read-out: % Inhibition PKC-ε",81%
same,inhibition at 15 µM,"PKC beta 1; 15.0 μM, read-out: % Inhibition PKC-βI",18.8%
same,inhibition at 30 µM,"PKC beta 1; 30.0 μM, read-out: % Inhibition PKC-βI",-69%
COc1cccc2c1C(=O)c1c(O)c3c(c(O)c1C2=O)C[C@@](O)(C(=O)CO)C[C@@H]3O[C@H]1C[C@H](N)[C@H](O)[C@H](C)O1 [doxorubicin],cell survival,[2],a large proportion of the cells survived
"Ac—FRRCFRL—(G)7—AKGIQEVKGGDAQNLIGISI—NH2 (Ac-FRRCFRLGGGGGGGAKGIQEVKGGDAQNLIGISI-NH2) [TIM 18, PRE 3 and PKI 4]",% Inhibition PKC-δ,PKC delta; 5.0 μM,56.3%
same,% Inhibition PKC-δ,PKC delta; 30.0 μM,85.1%
same,inhibition of PKC delta activity (in words),PKC delta,inhibits the activity
same,% Inhibition PKC-α,PKC alpha; 2.5 μM,16.4%
same,inhibition of PKC alpha activity (in words),PKC alpha,very potent inhibitor
same,inhibition of PKC epsilon activity (in words),PKC epsilon; Kinase-Glo,no effect
same,inhibition of PKC beta 1 activity (in words),PKC beta 1,inhibits the activity
"Ac—FRRCFRL—(G)7—KDAQNLIGISI—NH2 (Ac-FRRCFRLGGGGGGGKDAQNLIGISI-NH2) [TIM 21, PRE 4 and PKI 4]",% Inhibition PKC-δ,PKC delta; 2.5 μM,26.2%
same,inhibition of PKC delta activity (in words),PKC delta,exceptionally good inhibitor
same,% Inhibition PKC-α,PKC alpha; 15.0 μM,64.3%
same,% Inhibition PKC-α,PKC alpha; 30.0 μM,95.2%
same,inhibition of PKC alpha activity (in words),PKC alpha,at a lesser extent
same,% Inhibition PKC-ε,PKC epsilon; 5.0 μM,−5%
same,% Inhibition PKC-ε,PKC epsilon; 30.0 μM,52%
same,% Inhibition PKC-βI,PKC beta 1; 5.0 μM,11%
same,% Inhibition PKC-βI,PKC beta 1; 30.0 μM,13.9%
same,inhibition of PKC beta 1 activity (in words),PKC beta 1,not active
KDAQNLIGISL-NH2 [PRE 2],Band Intensity,PKC-β [3],0.0322
same,Inhibition (%),PKC-β [3],54.7%
same,Relative Intensity (%),PKC-β [3],45.3%
same,Inhibition (%),PKC-α [4]; Example 3,99.9%
same,Relative Intensity (%),PKC-α [4]; Example 3,0.135%
same,Band Intensity,PKC-α [4]; Example 3 (control 0.759),0.0103
same,Band Intensity,PKC-α [5]; 75 μg,0.917
same,Inhibition (%),PKC-α [5]; 75 μg,56.1%
same,Relative Intensity (%),PKC-α [5]; 75 μg,43.9%
same,Band Intensity,PKC-α [5]; 300 μg,0.192
same,Inhibition (%),PKC-α [5]; 300 μg,90.9%
same,Relative Intensity (%),PKC-α [5]; 300 μg,9.1%
same,Band Intensity,PKC-β [6]; 75 μg,0.800
same,Inhibition (%),PKC-β [6]; 75 μg,31.0%
same,Relative Intensity (%),PKC-β [6]; 75 μg,69.0%
same,Band Intensity,PKC-β [6]; 300 μg,0.403
same,Inhibition (%),PKC-β [6]; 300 μg,65.3%
same,Relative Intensity (%),PKC-β [6]; 300 μg,34.7%
